Experimental data reported in the supplement of paper PMC9170038.

Test system: K4 kissing-loop RNA reporter
Assay: apparent KD of K4 kissing-loop reporter; higher = weaker reporter binding
Conditions: Eterna round: R107
Protocol: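 RNA-MaP round R107: designed RNA switches with theophylline, tryptophan, arginine or FMN aptamers are transcribed on-chip within common flanks. They are titrated with a labelled K4 kissing-loop RNA reporter in RNA-MaP buffer (100 mM Tris pH 7.5, 80 mM KCl, 4 mM MgCl2), without ligand or with the indicated ligand. Median apparent KD per design.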

[1] = input ligand: theophylline 20 uM
[2] = input ligand: tryptophan 2.4 mM
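Note: bound reporter read as fluorescence of individual clusters on recovered sequencing chips by microscopy, with normalized cluster intensities fitted with a binding model.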

Sequence	apparent KD of K4 kissing-loop reporter (input ligand: FMN 200 uM) [nM]	apparent KD of K4 kissing-loop reporter (input ligand: arginine 13.2 mM) [nM]	apparent KD of K4 kissing-loop reporter (input ligand: none) [nM]	apparent KD of K4 kissing-loop reporter [1] [nM]	apparent KD of K4 kissing-loop reporter [2] [nM]
UGUGUUUUUUUGAUGUUUGUUGUAAAAUGGCAGGAUAUCGUAGAGGCGAGAAGGGCUUUUAUGCGUUAUGAGUGAUGUUUGUAGG [qqdqmullin]	316	297	315	336	241
UUACUACCCAGUGAUGUUGGGUAGCGGCCACGAGGACCGGUACGGCCGCCACUCGAGGUUCGGGAGUGAUGUUCCUACUAUUUGG [Same state Tryptophan A GF 6]	328	341	360	402	160
UUAGAGAUCUCAGGAUAUCAGUGAUGUUGGUAUCAAGAUCUGAGAUAGAAUUCUAUCUCAGAUCAAUGAGAAGGGAGAUCUCAUU [AK3.3 Exc FMN B]	374	110	105	176	118
UUAGCCUAGCCAUAGUGAUGUUGUGGAAUACGAGGACCGGUACGGCCGCCACUCGCUCGACGGUGAUGACAUCAACGACCUUUAU [theeternabot_sameState_KL_Trp_A_38]	312	304	311	314	285
UUAGCGACAAGUCAGAUUCUGACAAUUGAUACCAGAUAGAAUUCUAUCCCUUGGCAGCAGUGAUGUUGUUGCAAUAAGUCGCAUU [AK2 Exc Theophylline A]	322	253	317	282	266
UUAGCUCUAUAGAGCAAGAGGUCAACUGAUACCAGAGGCUAUAGCCUCCCUUGGCAGCGGAACGAGUGAUGUUCGAGACCUCAUU [AK6 SS Theophylline A]	1280	816	1560	750	1440
UUAGGAGUGGAAGGAUAUCCUGGUGUGGGUGAUGUUAGUGAUGUUGGAGGUGCAGUGAUGUUGCGCGGAGAAGGUCCGGUGUUGA [BDazzled - #5 - Exc. FMN B]	280	299	372	435	263
UUAGGAGUGGGAGGAUAUCCUAAUGUGGGUGAUGUUAGCGAUGUUGAAAGUGUAGUGAUGUUGUGCGGAGAAGGUCCAGUGUUGA [BDazzled - #12 - Exc. FMN B]	197	141	175	269	168
UUAGUCUAGAGAAGGAGCGCAGUGAUGUUGCGAAUAAUAAUAAUAAUAAAUAAAUAAUCGAUGCAGGUAGGUCGCUCUAGACAUU [AK1 Exc Arginine B]	217	422	288	335	213
UUAUAACCCAGUGAUGUUGGGUAGCGGCCACGAGGACCGGUACGGCCGCCACUCGAGGUUUAACCAGUGAUGUUGGACUAUAUAA [Same state Tryptophan A GF 4]	51	35.2	47	34.5	23.7
UUAUACUCAUGUAAAGAACUAGUAACCGAAGGAGCGACAUAAAAGUCAGGUAGGUCGCGGAUUUCUCAGUGAUGUUGAGAGCAUU [JR_SSArginiA_Sub012]	109	192	121	185	93.9
UUAUUAUUCAGUGAUGUUGAAUUUAUUUCAGAGGAUAUGCAUAAAUGCAGAAGGCUGUAAUACUAUACUUUAAUAAAUUAAAUUU [JR_SSFMNA_Sub018]	242	250	248	262	203
UUCAGGUGUUCGGCCGCCACUCCAGUGAUGUUGGAGUGGCUUCACAAGGGCCAGGACAAUGUAAGGAGGACCGGGAAUAUCGCAG [Quonerar]	127	116	123	89.2	134
UUCUAAAUGUCUGAUACCAGAGAAAAUAUAUGUAGUGAUGUUAUAUACAAAUUUAAUAAGCUCCCUUGGCAGCAGUAUGAAUUUU [AstrosExc-TheB#13]	705	744	949	755	595
UUCUGCAUCUCGGCCGCCACUCACUAGUGAUGUUAGUAAGGAGCGACUAGAAAAGUCCAGUUAAUGAGGACCGGGAGAAGCUCUU [Exclusion Tryptophan B GF 1]	281	298	312	199	217
UUCUGCAUCUCGGCCGCCACUCACUAGUGAUGUUAGUAAGGAGCGACUAGACAUGUCCCGUUAUUGAGGACCGGGAGAGGCUCUU [#13 K4 Tryptophan B Exclusion]	208	162	192	162	140
UUGACCAAAUUCCGGUGAUCAUCGCCGCCGCGAGGACCGGUACGGCCGCCACUCGUCCCUAUGCUCGGAGUAGUGAUGUUAUUCA [theeternabot_sameState_KL_Trp_A_43]	557	197	529	280	574
UUGUUUGGUUGAGAGGUUGGGCGAGAUGAUACCAGUAGAGAAGAGUACCCUUGGCAGCAUAGGAGAGAUAUAGUGAUGUUGUAUG [SSTheophA.S]	258	187	320	498	299
UUGUUUGGUUGAGAGGUUGGGCGAGAUGAUACCAGUAUAUAAGAAUACCCUUGGCAGCAUAAGAAAGAUAUAGUGAUGUUGUAUA [SSTheophA.M]	520	379	645	672	457
UUUAAAUAUAGUGAUGUUAUAUAACAAUGACGAGGACCGGUACGGCCGCCACUCGAGAGAGAUAAUGGUCAUACAAAUGUAUGUU [AstrosSSTryA#10]	672	677	738	789	529
UUUACUCCGAGUGAUGUUCGGCGUAUCUGACGAGGACCGGUACGGCCGCCACUCGGUUCGACUACGAAGGCCUUGGCCACAGAUU	268	174	257	284	285
UUUAUAAAGUCGGCCGCCACUGGAUUUAUAUUUGUUUAGUCUGGAUCAAAGUGAUGUUUUGAGUCCAGGACCGGGACAUUUGUUA [whbob_Ex_Tryp_B_w36]	92.1	85.9	93.5	91.9	172
UUUAUGAUGUCGGCCGCCACUGGAUUAAUAUGUGUGUAAUCUAGUUCUGAGUGAUGUUUAGAGUCCAGGACCGGGACAUUAGUUA [#12 K4 Tryptophan B Exclusion]	719	476	652	832	700
UUUAUUAAGACGGCCGCCACUGAAUUAGAGUGAUGUUCUAUAAUUUCUAAAUUAAAUUUAUUCAACAGGACCGGGUCAAUUAUUA [JR_SSTryptoB_Sub011]	384	364	382	392	314
UUUAUUAAGACGGCCGCCACUGAUUCAUAGUGAUGUUAUGAUAUAAUUUUAGUGAUAUGCAUUAGCAGGACCGGGUCAAUUAUUA [JR_ExcTryptoB_Sub017]	158	146	166	142	173
UUUGCAAAGUCGGCCGCCACUCCGGGCCCUAUAAAUGGGCGCAGUGAUGUUGCGGCUAGGCCUCUGAGGACCGGGACUUUGUAAA [Inusleve]	151	52.1	52.3	77.2	179
UUUGGAUUGCACUAAGAGCGCAAGCGCCAACGAGGACCGGUACGGCCGCCACUCGCGGAGGAGUCCAGUGAUGUUGGACGGCCCG [Onenusan]	233	359	359	180	172
UUUGUAUAGGGAAGGAGCGUGAAUGAUAAUGAAUAUAGUGAUGUUAUAUAUAAGAAAGAAUCACAGGUAGGUCGCCCGGAUGAGG [SSArgB.K]	557	400	565	855	412
UUUUAAAUGUCUGAUACCAGAGAAAAUUUAUGUAGUGAUGUUAUAUACAAAUUAAAUAAGCUCCCUUGGCAGCAGUAUUAAUUUU [AstrosExc-TheB#9]	583	596	846	623	552
UUUUAUAACCGAAGGAGCGCGUGGGCGCAGUGAUGUUGCGCCCGACAUCACUUCAACUUAACGCAGGUAGGUCGCGGUUUUAAUA [Arginine B (Excl) V2]	157	132	159	158	153
